The values below come from patent publication US20050245453A1 (MOUNT SINAI SCHOOL OF MEDICINE OF NEW YORK UNIVERSITY, published 2005).

In the assay the target is Presenilin-1 (PS1) (human, UniProt P49768 1-467). The assay can be described thus: co-immunoprecipitation with anti-PS1/NTF R222 from transfected A431D cell extracts, Western blot with C36. Here is the method:
Immunoprecipitations (IPs), immunoblotting, immunofluorescence and confocal microscopy. For WB analysis of cell extracts, cells were washed with PBS and then solubilized in RIPA buffer. For IPs cells were solubilized in Hepes buffer (25 mM Hepes [pH 7.4], 150 mM NaCl, 1× Complete protease inhibitor cocktail, Roche) containing 1% digitonin (IPs with I-R222 and PI-R222 antibodies) or 1% Triton X-100 (IPs with β-catenin and desmoglein antibodies). Following centrifugation at 17,000×g for 10 min, supernatants (1 mg protein) were pre-cleared with protein A- or protein G-agarose (Pierce) for 2 hours. Supernatants were then incubated with antibodies overnight at 4° C. and treated for 2 hours with protein A-agarose (polyclonal antibodies) or with protein G-agarose (monoclonal antibodies). IPs were washed with Hepes buffer containing either 1% digitonin or 1% Triton X-100 and analyzed by SDS-PAGE. Immunofluorescence and confocal microscopy was performed as described by Georgakopoulos et al., (1999). Briefly, cells were plated on 22×22 mm collagen-coated glass coverslips, fixed in cold methanol for 10 min at −20° C. […]
A general note: Immunoblotting shows a protein as a band on a membrane.

B1: E-cadherin mutant GGG759-761AAA (receptor)
chain: DWVIPPISCPENEKGPFPKNLVQIKSNKDKEGKVFYSITGQGADTPPVGVFIIERETGWLKVTEPLDRERIATYTLFSHAVSSNGNAVEDPMEILITVTDQNDNKPEFTQEVFKGSVMEGALPGTSVMEVTATDADDDVNTYNAAIAYTILSQDPELPDKNMFTINRNTGVISVVTTGLDRESFPTYTLVVQAADLQGEGLSTTATAVITVTDTNDNPPIFNPTTYKGQVPENEANVVITTLKVTDADAPNTPAWEAVYTILNDDGGQFVVTTNPVNNDGILKTAKGLDFEAKQQYILHVAVTNVVPFEVSLTTSTATVTVDVLDVNEAPIFVPPEKRVEVSEDFGVGQEITSYTAQEPDTFMEQKITYRIWRDTANWLEINPDTGAISTRAELDREDFEHVKNSTYTALIIATDNGSPVATGTGTLLLILSDVNDNAPIPEPRTIFFCERNPKPQVINIIDADLPPNTSPFTAELTHGASANWTIQYNDPTQESIILKPKMALEVGDYKINLKLMDNQNKDQVTTLEVSVCDCEGAAGVCRKAQPVEAGLQIPAILGILGGILALLILILLLLLFLRRRAVVKEPLLPPEDDTRDNVYYYDEEAAAEEDQDFDLSQLHRGLDARPEVTRNDVAPTLMSVPRYLPRPANPDEIGNFIDENLKAADTDPTAPPYDSLLVFDYEGSGSEAASLSSLNSSESDKDQDYDYLNEWGNRFKKLADMYGGGEDD
notes: whole, on cells; Numbering on the unprocessed human E-cadherin precursor; Assayed in cell extracts by co-immunoprecipitation; also called mutant E-cadherin
For B1, the binding result was “no binding”.
